Assay results from the supplement of paper PMC7125110.
± gives the standard error. Variants at the floor of the assay were thinned out.

B1: glmS ribozyme (parent)
chain: AUAAAAGCGCCAGAACUACAGAAAUGUAGUUGACGAGGAGGAGGUUUAUCGAAUUUUCGGCGGAUGCCUCCAAA

How the values were obtained:
Conditions in all cases: with glucosamine-6-phosphate
[1] = variants of: B1; assay: self-cleavage kobs at 640 uM GlcN6P; higher = faster cleavage; RNA array
Method in brief: (§1)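 Glucosamine-6-phosphate in HEPES/KCl/Mg(OAc)2 buffer, at 40 μM to 10 mM, was flowed over barcoded ribozyme variants transcribed in situ by E. coli RNA polymerase on sequenced MiSeq chips. Tracking was through a hybridised Cy3 probe at 37 °C. kobs, kcat and KM came from exponential decay fits and weighted Michaelis–Menten fits of normalised per-tile medians.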

[2] = variants of: B1; assay: self-cleavage kobs at 2500 uM GlcN6P; higher = faster cleavage; RNA array
Method in brief: as §1

[3] = variants of: B1; assay: self-cleavage kobs at 10000 uM GlcN6P; higher = faster cleavage; RNA array
Method in brief: as §1

| Variant | self-cleavage kobs at 640 uM GlcN6P [1] | self-cleavage kobs at 2500 uM GlcN6P [2] | self-cleavage kobs at 10000 uM GlcN6P [3] |
| --- | --- | --- | --- |
| C16U U49G | 0.000174 ± 4.8e-05 s⁻¹ | 0.000685 ± 0.00023 s⁻¹ | 0.000387 ± 6.5e-05 s⁻¹ |
| U30G U31G U49G U69G | 7.71e-05 ± 2.2e-05 s⁻¹ | 6.45e-05 ± 2.7e-05 s⁻¹ |  |
| G29A A48U G62C | < 1e-05 s⁻¹ |  |  |
| A33U A42G C68A | < 1e-05 s⁻¹ | < 1e-05 s⁻¹ |  |
| U31C G37A A53G | 5.04e-05 ± 8.3e-06 s⁻¹ | 0.000126 ± 2e-05 s⁻¹ |  |
| U30C U45G U56G C68G | < 1e-05 s⁻¹ | < 1e-05 s⁻¹ |  |
| C34U U57A | < 1e-05 s⁻¹ | < 1e-05 s⁻¹ |  |
| G32A A53C C58U C71A | < 1e-05 s⁻¹ |  |  |
| A18C U56C U65G | 5.82e-05 ± 2.6e-05 s⁻¹ | 0.000131 ± 6.1e-05 s⁻¹ |  |
| A33C G35C U49G G59C | < 1e-05 s⁻¹ | < 1e-05 s⁻¹ |  |
| U30A U31C A39U | 0.00038 ± 0.00011 s⁻¹ | 0.000577 ± 0.00018 s⁻¹ |  |
| U31A G43C U45G A52U C70U | < 1e-05 s⁻¹ |  |  |
| C16A A36U A42G A48G G51U U54G | < 1e-05 s⁻¹ | < 1e-05 s⁻¹ |  |
| G29U G51A A64U U69G | 0.000114 ± 3.7e-05 s⁻¹ | 0.000294 ± 9.7e-05 s⁻¹ |  |
| C34A U54A A64C | < 1e-05 s⁻¹ | < 1e-05 s⁻¹ |  |
| G29U A33U G43C G60C G62U C71G | < 1e-05 s⁻¹ | < 1e-05 s⁻¹ |  |
| G29A G35C G40A | < 1e-05 s⁻¹ |  |  |
| U30G U47A G60U | < 1e-05 s⁻¹ |  |  |
| C34A G51A A52G | < 1e-05 s⁻¹ | < 1e-05 s⁻¹ |  |
| U31G G38U A53G C68A C71A | 0.000204 ± 7.6e-05 s⁻¹ |  |  |
| G35C A36U G38A | < 1e-05 s⁻¹ |  |  |
| U30G C34U G35A C68A | 0.00169 ± 0.00067 s⁻¹ |  |  |

| Variant | self-cleavage kobs at 640 uM GlcN6P [1] | self-cleavage kobs at 2500 uM GlcN6P [2] | self-cleavage kobs at 10000 uM GlcN6P [3] |
| --- | --- | --- | --- |
| C34A U46C A53G G60C C61A | < 1e-05 s⁻¹ | < 1e-05 s⁻¹ |  |
| U31G G44U U46G C58A | < 1e-05 s⁻¹ |  |  |
| C16G U30C C50U | < 1e-05 s⁻¹ |  |  |
| U31A U47C G51A G66A | < 1e-05 s⁻¹ | < 1e-05 s⁻¹ |  |
| G32A U54A C68A | 0.000374 ± 0.00012 s⁻¹ | 0.000108 ± 4.1e-05 s⁻¹ |  |
| U30C G38U A42U | < 1e-05 s⁻¹ |  | < 1e-05 s⁻¹ |
| C16A A39U U54C | 0.000107 ± 2.9e-05 s⁻¹ | 0.000434 ± 9.7e-05 s⁻¹ | 0.000811 ± 0.00017 s⁻¹ |
| G35A U46C G66A | < 1e-05 s⁻¹ |  |  |
| G29U C34U | < 1e-05 s⁻¹ |  |  |
| U31G G35C G51U | < 1e-05 s⁻¹ |  |  |
| G29C G41C C68G | < 1e-05 s⁻¹ | < 1e-05 s⁻¹ | < 1e-05 s⁻¹ |
| A33G U57A | < 1e-05 s⁻¹ | < 1e-05 s⁻¹ |  |
| U31C A42G G66A | 0.000315 ± 9.6e-05 s⁻¹ | 0.00117 ± 0.00033 s⁻¹ |  |
| A33C U45C U47A A48G | < 1e-05 s⁻¹ |  |  |
| G35A C58A | < 1e-05 s⁻¹ | < 1e-05 s⁻¹ |  |
| C16U A39G A42U U47A | 5.33e-05 ± 2.6e-05 s⁻¹ | 0.000115 ± 1.9e-05 s⁻¹ |  |
| C16A G38U U47A | < 1e-05 s⁻¹ |  |  |
| C16A U56G C58G G62C | < 1e-05 s⁻¹ |  |  |
| A15U G35U U46A | < 1e-05 s⁻¹ | < 1e-05 s⁻¹ |  |
| A33C G41A A53U | < 1e-05 s⁻¹ |  |  |
| U27G A28U U30G C68A | < 1e-05 s⁻¹ | < 1e-05 s⁻¹ |  |
| C16U A36C G38A | < 1e-05 s⁻¹ |  | < 1e-05 s⁻¹ |

| Variant | self-cleavage kobs at 640 uM GlcN6P [1] | self-cleavage kobs at 2500 uM GlcN6P [2] | self-cleavage kobs at 10000 uM GlcN6P [3] |
| --- | --- | --- | --- |
| U31A U46G A48G | < 1e-05 s⁻¹ |  |  |
| C16A U54C G59U | < 1e-05 s⁻¹ |  |  |
| G35C G38A U69G | 0.00083 ± 0.00024 s⁻¹ |  |  |
| G29C A33U G35C A52U | < 1e-05 s⁻¹ | < 1e-05 s⁻¹ |  |
| C16G U46A U49G C67G U69G C71G | < 1e-05 s⁻¹ |  |  |
| C34G C61G G62C | < 1e-05 s⁻¹ |  |  |
| U31C A48G G60A | < 1e-05 s⁻¹ | < 1e-05 s⁻¹ |  |
| U30C G32C C58A | 3.93e-05 ± 1.5e-05 s⁻¹ |  |  |
| C16G A48U C50G C70A | 5.34e-05 ± 2.6e-05 s⁻¹ |  |  |
| G32A G51U A52U G60C G62C | < 1e-05 s⁻¹ |  |  |
| G32U A36U G62U | < 1e-05 s⁻¹ |  |  |
| U31G G32U G40A A48C | < 1e-05 s⁻¹ | < 1e-05 s⁻¹ |  |
| U31G G41A U46G | 7.29e-05 ± 2.3e-05 s⁻¹ | 0.00021 ± 5.3e-05 s⁻¹ |  |
| C34U A48U A64U | < 1e-05 s⁻¹ | < 1e-05 s⁻¹ |  |
| U31C C50G G59A C71G | 7.63e-05 ± 1.9e-05 s⁻¹ |  |  |
| C16A A42C C71U | < 1e-05 s⁻¹ | < 1e-05 s⁻¹ |  |
| U30A U69G C71A | 0.00266 ± 0.00078 s⁻¹ |  |  |
| C16A C70U C71A | 0.00012 ± 4.3e-05 s⁻¹ |  |  |
| U31A A36C G37U U49C | < 1e-05 s⁻¹ |  |  |
| G32U U55A C71A | 9.04e-05 ± 2.8e-05 s⁻¹ | 8.28e-05 ± 3.5e-05 s⁻¹ |  |
| A33C A53G | 3.89e-05 ± 1.4e-05 s⁻¹ | 7.39e-05 ± 1.3e-05 s⁻¹ | 0.000235 ± 3.8e-05 s⁻¹ |
